The values that follow come from paper PMC10044410.

Assay [1] has as its target FM-CnoX (fluorescein-5-maleimide-labeled CnoX) (E. coli) (UniProt P77395). In words: fluorescence polarisation.
For assay [2] the target is unchanged. As to the kind of experiment: other fluorescence titration.
The target of assay [3] is GroEL (wild type, recombinant, from pET22b-groL) (E. coli) (UniProt P0A6F5). As to the kind of experiment: SEC. A general note: SEC sorts molecules by how far they enter the pores of the column.

By Kd is commonly meant the concentration at which binding is half-saturated. A low value points to a tighter complex. As for “GroEL (untagged, from pET15b, for quantitative binding studies) (from UniProt P0A6F5 1-548) (natural protein)”, the Kd in assay [1] stood at 310 nM; in assay [2], 350 nM. Regarding “CnoX (wild type, recombinant, from pET22b-cnoX) (from UniProt P77395 1-284) (natural protein)”, in assay [3], the stoichiometry N (CnoX per GroEL double ring) stood at 1.
